Reference: US20110165170A1 (Pfizer, published 2011)
Like-named read-outs stand apart in the source and are kept apart here.

Columns and labels:
[1] = biological target: T1, recombinant human osteopontin (R&D Systems #1433-OP/CF, carrier free) (human, UniProt P10451 17-314, biotinylated in the capture ELISA, on the SET plates and on the Biacore streptavidin chip); assay: solution equilibrium titration (SET), ECL, Fab
T1 construct: Bought protein; also called hOPN; human OPN
Procedure: Affinity determination in solution was basically performed as described in the literature (Friguet et al., J. Immunol. Methods 77:305 (1985)). In order to improve the sensitivity and accuracy of the SET method, it was transferred from classical ELISA to ECL based technology (Haenel et al., Anal. Biochem. 339:182-184 (2005)). 1 mg/mL goat-anti-human (Fab)₂ fragment specific antibodies (Dianova) were labeled with MSD Sulfo-TAG™ NHS-Ester (Meso Scale Discovery, Gaithersburg, Md., USA) according to the manufacturer's instructions. The experiments were carried out in polypropylene microtiter plates and PBS, pH 7.4, with 0.5% BSA and 0.02% Tween 20 as assay buffer. Unlabeled osteopontin was diluted in a 2n series, starting with a concentration at least 10 times higher than the expected KD. Wells without antigen were used to determine Bₘₐₓ values; wells with assay buffer were used to determine background. After addition of e.g. 25 pM Fab (final concentration in 60 μL final volume), the mixture was incubated over night at room temperature. The applied Fab concentration was similar to or below the expected KD.
Streptavidin coated MSD plates were blocked over night with 3% BSA in PBS (50 μL/well), subsequently the blocking solution was discarded and the plates were coated with […] biotinylated osteopontin in assay buffer (30 μL/well) for 1 hour. After washing the coated MSD plates with assay buffer, the equilibrated samples were transferred to those plates (30 μL/well) and incubated for 20 minutes. After washing, 30 μL/well of the MSD Sulfo-tag labeled detection antibody (goat anti-human (Fab)₂) in a final dilution of 1:1000 was added to the MSD plate and incubated for 30 minutes on an Eppendorf shaker (700 rpm).

[2] = biological target: T1, recombinant human osteopontin (R&D …); assay: cell-based or functional assay
[3] = biological target: T1, recombinant human osteopontin (R&D …); assay: Biacore (SPR), Fab over biotinylated human OPN on streptavidin chip
Procedure: (§1) Binding to immobilized antigen was analyzed using the BIAcore3000 instrument (Biacore, Sweden).
(§2) For antigen immobilization, two alternative strategies were used: in the case of human OPN, biotinylated human OPN was bound to a Streptavidin coated sensor chip (Biacore, Sweden) to a binding level of approximately 300 RU. The reference flow cell was coated with a similar amount of biotinylated HSA. In the case of murine OPN, the antigen was immobilized covalently using standard EDC-NHS amine coupling chemistry. CM5 chips (Biacore, Sweden) were coated with murine OPN in 10 mM acetate buffer, pH 3.5 to a level of 400 RU. For the reference flow cell, a respective amount of HSA was used. Regeneration was accomplished with two injections of 10 mM Gly/HCl, pH 1.5 (5 μL) and 50 mM phosphoric acid (5 μL), respectively. Kinetic measurements were done in Dulbeccos PBS, pH 7.4 (Gibco) with 0.05% Tween 20 at a flow rate of 20 μL/min using a 2n serial dilution row of Fab samples. The Fab concentrations ranged from 15.6 to 500 nM. The injection time for each concentration was 1 minute, and the dissociation time was set to a minimum of 3 minutes. A blank injection of running buffer was used for double referencing. All sensorgrams were fitted globally using BIA evaluation software 3.2 (Biacore, Sweden), to determine association and dissociation rate constants (kₒₙ and koff), which were used to calculate the affinity (KD=koff/kₒₙ).

[4] = biological target: T2, recombinant mouse osteopontin (R&D Systems #441-OP/CF, carrier free) (mouse, UniProt P10923 17-294, biotinylated in the capture ELISA); assay: Biacore (SPR), Fab over amine-coupled murine OPN on CM5 chip
T2 construct: Bought protein; also called mOPN; mouse OPN
T2 sequence (P10923 17-294 limits assumed): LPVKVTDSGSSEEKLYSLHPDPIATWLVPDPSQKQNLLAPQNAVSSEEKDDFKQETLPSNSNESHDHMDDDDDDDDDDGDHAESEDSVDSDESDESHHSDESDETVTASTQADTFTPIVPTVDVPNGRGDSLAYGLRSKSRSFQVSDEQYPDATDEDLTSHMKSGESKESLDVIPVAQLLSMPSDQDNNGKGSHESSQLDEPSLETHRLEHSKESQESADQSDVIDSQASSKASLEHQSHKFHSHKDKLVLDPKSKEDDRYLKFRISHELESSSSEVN
Procedure: as §1, §2

[5] = biological target: T1, recombinant human osteopontin (R&D …); assay: Biacore 3000 (SPR), IgG flowed over amine-coupled human Osteopontin; avidity, 1:1 fit
Procedure: (§3) Binding avidity of monoclonal antibodies to Osteopontin was determined using Biacore analysis (General Electric Healthcare, Biacore 3000). To obtain nominal avidity measurements, human Osteopontin (R&D Systems, 1433-OP-050/CF) and mouse Osteopontin (R&D Systems, 441-OP-050/CF) were immobilized on a biosensor chip using standard amine coupling and various concentrations of monoclonal antibodies (MOR6990, MOR6991 and MOR6993) were flowed across the surface at 25.0° C. in 10 mM HEPES pH 7.4, 150 mM NaCl, 0.005% P20. The binding data were fit globally to a simple one-to-one binding model.

[6] = biological target: T1, recombinant human osteopontin (R&D …); assay: cell-based or functional assay; remark: listed apart in the source
[7] = biological target: T2, recombinant mouse osteopontin (R&D …); assay: Biacore 3000 (SPR), IgG flowed over amine-coupled mouse Osteopontin; avidity, 1:1 fit
Procedure: as §3

[8] = biological target: T2, recombinant mouse osteopontin (R&D …); assay: protein ELISA, Fab on mouse OPN protein
[9] = biological target: T1, recombinant human osteopontin (R&D …); assay: protein ELISA, Fab on human OPN protein
[10] = biological target: T3, SPP1 peptide comprising functional domains of mouse OPN (27 aa) (mouse); assay: peptide ELISA, Fab on mouse SPP1 peptide
T3 construct: Target of the 'Peptide ELISA, mOPN' columns; also called mOPN peptide; SSP1 peptide

[11] = biological target: T2, recombinant mouse osteopontin (R&D …); assay: Biacore (SPR), Fab over immobilized mouse OPN
Procedure: as §2

[12] = biological target: T4, SPP1 peptide comprising functional domains of human OPN (27 aa) (human); assay: peptide ELISA, Fab on human SPP1 peptide
T4 construct: Target of the 'Peptide ELISA, hOPN' columns; also called hOPN peptide; SSP1 peptide

[13] = biological target: T1, recombinant human osteopontin (R&D …); assay: Biacore (SPR), Fab over immobilized human OPN

T1 sequence (P10451 other isoform, or with tags, fused parts or gaps limits assumed): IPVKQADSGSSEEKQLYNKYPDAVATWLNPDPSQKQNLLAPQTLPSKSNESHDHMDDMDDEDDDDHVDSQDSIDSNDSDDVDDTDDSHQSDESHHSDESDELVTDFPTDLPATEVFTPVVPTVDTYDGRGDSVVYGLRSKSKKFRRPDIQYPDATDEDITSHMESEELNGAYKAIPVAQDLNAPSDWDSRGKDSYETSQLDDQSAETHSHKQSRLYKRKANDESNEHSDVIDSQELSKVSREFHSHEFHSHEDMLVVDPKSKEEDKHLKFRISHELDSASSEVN

Binder	Kd [1]	Adhesion Assay Mn2+-dependent hOPN, IC50 [2]	Kd [3]	Kd [4]	Kd [5]	koff [5]	kon [5]	Adhesion Assay Mn2+-dependent hOPN, IC50 [6]	also measured
HuCAL GOLD Fab 6991 (MOR-6991 Fab) (Fab, V domains shown, Fab format made in E. coli) VH: QVQLVESGGGLVQPGGSLRLSCAASGFTFNNYAVSWVRQAPGKGLEWVSGISYGGSNTYYADSVKGRFTISRDNSKNTLYLQMNSLRAEDTAVYYCARTLGGDFDHWGQGTLVTVSS VL: DIVLTQPPSVSGAPGQRVTISCSGSSSNIGSNYVNWYQQLPGTAPKLLIYGNSKRPSGVPDRFSGSKSGTSASLAITGLQSEDEADYYCQSFTQMLLVFGGGTKLTVL	3 nM	264 nM	300 nM	1390 nM					
HuCAL GOLD Fab 6993 (MOR-6993 Fab) (Fab, V domains shown, Fab format made in E. coli) VH: QVQLVESGGGLVQPGGSLRLSCAASGFTFTTSSMHWVRQAPGKGLEWVSRISSHGSNTYYADSVKGRFTISRDNSKNTLYLQMNSLRAEDTAVYYCARDMYRGVYGFALWGQGTLVTVSS VL: DIELTQPPSVSVAPGQTARISCSGDAIRNYYVHWYQQKPGQAPVLVIYEDSDRPSGIPERFSGSNSGNTATLTISGTQAEDEADYYCQSYDKSNVVFGGGTKLTVL	0.2 nM	29.8 nM	70 nM	3980 nM					
MOR-6990 (full length human IgG2) (antibody, V domains shown, Human IgG2, lambda light chain; made in HKB11 cells) VH: QVQLVESGGGLVQPGGSLRLSCAASGFTFSNYVMHWVRQAPGKGLEWVSSIFGSGSDTYYADSVKGRFTISRDNSKNTLYLQMNSLRAEDTAVYYCARSASSGFGFAGYGIDSWGQGTLVTVSS VL: DIELTQPPSVSVAPGQTARISCSGDSLRYYYAHWYQQKPGQAPVLVIYDDNKRPSGIPERFSGSNSGNTATLTISGTQAEDEADYYCQSWDLFHSSVFGGGTKLTVLG					20.9 nM	0.00203 s⁻¹	96900 M⁻¹ s⁻¹	0.4 nM	Kd [7]: 4.7 nM; koff [7]: 0.000864 s⁻¹; kon [7]: 183000 M⁻¹ s⁻¹
MOR-6991 (full length human IgG2) (antibody, V domains shown, Human IgG2, lambda light chain; made in HKB11 cells) VH: QVQLVESGGGLVQPGGSLRLSCAASGFTFNNYAVSWVRQAPGKGLEWVSGISYGGSNTYYADSVKGRFTISRDNSKNTLYLQMNSLRAEDTAVYYCARTLGGDFDHWGQGTLVTVSS VL: DIVLTQPPSVSGAPGQRVTISCSGSSSNIGSNYVNWYQQLPGTAPKLLIYGNSKRPSGVPDRFSGSKSGTSASLAITGLQSEDEADYYCQSFTQMLLVFGGGTKLTVLG					19 nM	0.00933 s⁻¹	491000 M⁻¹ s⁻¹	0.6 nM	
MOR-6993 (full length human IgG2) (antibody, V domains shown, Human IgG2, lambda light chain; made in HKB11 cells) VH: QVQLVESGGGLVQPGGSLRLSCAASGFTFTTSSMHWVRQAPGKGLEWVSRISSHGSNTYYADSVKGRFTISRDNSKNTLYLQMNSLRAEDTAVYYCARDMYRGVYGFALWGQGTLVTVSS VL: DIELTQPPSVSVAPGQTARISCSGDAIRNYYVHWYQQKPGQAPVLVIYEDSDRPSGIPERFSGSNSGNTATLTISGTQAEDEADYYCQSYDKSNVVFGGGTKLTVLG					0.752 nM	0.00462 s⁻¹	6.14e+06 M⁻¹ s⁻¹	0.4 nM	Kd [7]: 0.747 nM; koff [7]: 0.00496 s⁻¹; kon [7]: 6.64e+06 M⁻¹ s⁻¹
HuCAL GOLD Fab 6990 (MOR-6990 Fab) (Fab, V domains shown, Fab format made in E. coli) VH: QVQLVESGGGLVQPGGSLRLSCAASGFTFSNYVMHWVRQAPGKGLEWVSSIFGSGSDTYYADSVKGRFTISRDNSKNTLYLQMNSLRAEDTAVYYCARSASSGFGFAGYGIDSWGQGTLVTVSS VL: DIELTQPPSVSVAPGQTARISCSGDSLRYYYAHWYQQKPGQAPVLVIYDDNKRPSGIPERFSGSNSGNTATLTISGTQAEDEADYYCQSWDLFHSSVFGGGTKLTVL	35 nM	157 nM	140 nM	2270 nM					
MOR-10475 Fab (Fab, V domains shown, Only variable domains are tied to the Fab) VH: QVQLVESGGGLVQPGGSLRLSCAASGFTFSNYVMHWVRQAPGKGLEWVSSIFGSGSDTYYADSVKGRFTISRDNSKNTLYLQMNSLRAEDTAVYYCARSASSGFGFAGYGIDSWGQGTLVTVSS VL: DIELTQPPSVSVAPGQTARISCSGDSLRYYYAHWYQQKPGQAPVLVIYDDNKRPSGIPERFSGSNSGNTATLTISGTQAEDEADYYCQAWDLINSHVFGGGTKLTVL									EC50 [8]: 0.6 nM; EC50 [9]: 0.6 nM; EC50 [10]: 0.7 nM; Kd [11]: 41 nM; EC50 [12]: 0.7 nM; Kd [13]: 80 nM
